In publication PMC5703999, “The E. coli dicarboxylic acid transporters DauA act as a signal transducer by interacting with the DctA uptake system” (Scientific Reports, 2017):

T1: DauA fused to the T18 or T25 domain of adenylate cyclase (E. coli, UniProt P0AFR2 1-559)
T1 construct: C4-dicarboxylic acid transporter DauA (previously YchM), E. coli; Stood with T18 and with T25 in reciprocal pairings; one molecule for both; also called DauA-T18; DauA-T25; source: bacterial two-hybrid fusion (pUT18 or pKNT25), in E. coli BTH101 (cyaA-); not shown: T18 or T25 domain of Bordetella pertussis adenylate cyclase CyaA, C-terminal, kept
T1 sequence (looked up): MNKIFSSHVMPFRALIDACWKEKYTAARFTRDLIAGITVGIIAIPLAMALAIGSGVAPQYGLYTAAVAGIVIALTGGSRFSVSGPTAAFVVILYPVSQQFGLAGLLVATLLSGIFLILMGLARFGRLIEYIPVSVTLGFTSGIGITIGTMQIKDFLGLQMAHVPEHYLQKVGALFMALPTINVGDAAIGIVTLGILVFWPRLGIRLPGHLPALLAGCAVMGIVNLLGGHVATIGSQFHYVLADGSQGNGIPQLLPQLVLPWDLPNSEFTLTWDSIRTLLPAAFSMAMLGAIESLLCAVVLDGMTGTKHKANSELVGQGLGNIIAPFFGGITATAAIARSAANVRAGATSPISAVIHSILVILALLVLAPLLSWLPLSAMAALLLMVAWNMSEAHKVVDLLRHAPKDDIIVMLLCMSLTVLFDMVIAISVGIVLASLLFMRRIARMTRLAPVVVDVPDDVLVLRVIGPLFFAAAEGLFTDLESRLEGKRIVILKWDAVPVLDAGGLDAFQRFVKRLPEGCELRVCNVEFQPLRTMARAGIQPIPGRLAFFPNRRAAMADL

T2: DctA fused to the T18 or T25 domain of adenylate cyclase (E. coli, UniProt P0A830 1-428)
T2 construct: Aerobic C4-dicarboxylate transport protein DctA, E. coli; also called DctA-T25; DctA-T18; source: bacterial two-hybrid fusion (pUT18 or pKNT25), in E. coli BTH101 (cyaA-); not shown: T18 or T25 domain of Bordetella pertussis adenylate cyclase CyaA, C-terminal, kept
T2 sequence (looked up): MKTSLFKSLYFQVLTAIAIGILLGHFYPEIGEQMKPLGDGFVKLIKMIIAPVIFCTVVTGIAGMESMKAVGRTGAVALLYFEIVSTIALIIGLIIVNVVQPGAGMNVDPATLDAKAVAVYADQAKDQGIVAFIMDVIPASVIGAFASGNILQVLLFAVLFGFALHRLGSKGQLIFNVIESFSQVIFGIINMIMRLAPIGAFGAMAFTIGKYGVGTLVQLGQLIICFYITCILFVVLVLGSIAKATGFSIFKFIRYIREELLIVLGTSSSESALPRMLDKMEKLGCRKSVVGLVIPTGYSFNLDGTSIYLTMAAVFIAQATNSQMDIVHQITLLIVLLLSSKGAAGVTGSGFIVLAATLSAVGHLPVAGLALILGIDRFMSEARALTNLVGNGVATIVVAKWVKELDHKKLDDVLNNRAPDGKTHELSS


Columns and labels:
[1] = target: T1, DauA fused to the T18 or T25 domain of …; assay: two-hybrid; bacterial two-hybrid (BTH): T18 and T25 fusions co-transformed in E. coli BTH101 (cyaA-), grown overnight in LB at 30 °C; beta-galactosidase activity; background below 150 Miller units; the reporter strain expresses chromosomal DctA and DcuS; settings: partners not purified
[2] = target: T2, DctA fused to the T18 or T25 domain of …; assay: as above; settings: partners not purified

| Binder | beta-galactosidase activity [1] [Miller units] | beta-galactosidase activity [2] [Miller units] |
| --- | --- | --- |
| AmtB (ammonium transporter), two-hybrid fusion (natural protein, UniProt P69681 1-428, looked up, Ammonium transporter AmtB; source: bacterial two-hybrid fusion, in E. coli BTH101 (cyaA-)) MKIATIKTGLASLAMLPGLVMAAPAVADKADNAFMMICTALVLFMTIPGIALFYGGLIRGKNVLSMLTQVTVTFALVCILWVVYGYSLAFGEGNNFFGNINWLMLKNIELTAVMGSIYQYIHVAFQGSFACITVGLIVGALAERIRFSAVLIFVVVWLTLSYIPIAHMVWGGGLLASHGALDFAGGTVVHINAAIAGLVGAYLIGKRVGFGKEAFKPHNLPMVFTGTAILYIGWFGFNAGSAGTANEIAALAFVNTVVATAAAILGWIFGEWALRGKPSLLGACSGAIAGLVGVTPACGYIGVGGALIIGVVAGLAGLWGVTMLKRLLRVDDPCDVFGVHGVCGIVGCIMTGIFAASSLGGVGFAEGVTMGHQLLVQLESIAITIVWSGVVAFIGYKLADLTVGLRVPEEQEREGLDVNSHGENAYNA | < 150 |  |
| DcuS fused to the T18 or T25 domain of adenylate cyclase (natural protein, E. coli, UniProt P0AEC8 1-543, looked up, Membrane embedded sensor histidine kinase DcuS, E. coli; also called DcuS-T18; DcuS-T25; source: bacterial two-hybrid fusion (pUT18 or pKNT25), in E. coli BTH101 (cyaA-); not shown: T18 or T25 domain of Bordetella pertussis adenylate cyclase CyaA, C-terminal, kept) MRHSLPYRMLRKRPMKLSTTVILMVSAVLFSVLLVVHLIYFSQISDMTRDGLANKALAVARTLADSPEIRQGLQKKPQESGIQAIAEAVRKRNDLLFIVVTDMQSLRYSHPEAQRIGQPFKGDDILKALNGEENVAINRGFLAQALRVFTPIYDENHKQIGVVAIGLELSRVTQQINDSRWSIIWSVLFGMLVGLIGTCILVKVLKKILFGLEPYEISTLFEQRQAMLQSIKEGVVAVDDRGEVTLINDAAQELLNYRKSQDDEKLSTLSHSWSQVVDVSEVLRDGTPRRDEEITIKDRLLLINTVPVRSNGVIIGAISTFRDKTEVRKLMQRLDGLVNYADALRERSHEFMNKLHVILGLLHLKSYKQLEDYILKTANNYQEEIGSLLGKIKSPVIAGFLISKINRATDLGHTLILNSESQLPDSGSEDQVATLITTLGNLIENALEALGPEPGGEISVTLHYRHGWLHCEVNDDGPGIAPDKIDHIFDKGVSTKGSERGVGLALVKQQVENLGGSIAVESEPGIFTQFFVQIPWDGERSNR |  | 252 |
